The target of this assay is full-length EphA4 containing C-terminal FLAG and hexahistidine tags (EphA4-FLAGhis6) (human, UniProt P54764 20-986). Nature of the assay: pull-down.

Residue numbers refer to the chain shown, from its start. Numbers in names are those of the source.

full-length EphA4 containing C-terminal FLAG and hexahistidine tags (EphA4-FLAGhis6), sequence (P54764 20-986): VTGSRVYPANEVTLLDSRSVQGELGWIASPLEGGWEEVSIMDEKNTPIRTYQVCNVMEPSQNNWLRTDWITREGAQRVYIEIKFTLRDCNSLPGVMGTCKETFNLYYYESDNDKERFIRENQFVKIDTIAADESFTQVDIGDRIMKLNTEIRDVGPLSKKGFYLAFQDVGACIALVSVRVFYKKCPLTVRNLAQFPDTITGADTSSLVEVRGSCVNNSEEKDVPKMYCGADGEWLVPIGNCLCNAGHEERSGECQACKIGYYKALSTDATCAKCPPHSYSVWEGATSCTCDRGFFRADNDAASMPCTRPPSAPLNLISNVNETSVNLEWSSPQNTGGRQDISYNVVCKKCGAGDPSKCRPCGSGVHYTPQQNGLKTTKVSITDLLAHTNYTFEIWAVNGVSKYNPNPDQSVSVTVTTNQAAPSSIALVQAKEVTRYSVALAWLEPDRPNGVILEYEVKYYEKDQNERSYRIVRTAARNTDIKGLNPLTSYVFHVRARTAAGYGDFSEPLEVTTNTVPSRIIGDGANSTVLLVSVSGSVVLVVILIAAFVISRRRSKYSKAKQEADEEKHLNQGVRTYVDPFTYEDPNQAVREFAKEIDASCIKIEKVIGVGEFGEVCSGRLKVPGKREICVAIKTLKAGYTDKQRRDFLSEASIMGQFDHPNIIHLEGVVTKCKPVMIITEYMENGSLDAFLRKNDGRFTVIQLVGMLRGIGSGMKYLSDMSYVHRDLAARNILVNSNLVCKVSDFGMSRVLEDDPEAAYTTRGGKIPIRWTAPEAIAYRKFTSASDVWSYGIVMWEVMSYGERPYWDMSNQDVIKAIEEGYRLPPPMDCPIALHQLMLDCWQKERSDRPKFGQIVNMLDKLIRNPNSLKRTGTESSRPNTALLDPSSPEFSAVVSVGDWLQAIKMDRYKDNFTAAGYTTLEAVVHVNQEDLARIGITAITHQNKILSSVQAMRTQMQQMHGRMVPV

B1: SORLA YWTD repeat/EGF-like region (aa 758-1,076) fused to Fc, WT (Fc fusion, UniProt Q92673 758-1076, looked up)
chain: NEFILYAVRKSIYRYDLASGATEQLPLTGLRAAVALDFDYEHNCLYWSDLALDVIQRLCLNGSTGQEVIINSGLETVEALAFEPLSQLLYWVDAGFKKIEVANPDGDFRLTIVNSSVLDRPRALVLVPQEGVMFWTDWGDLKPGIYRSNMDGSAAYHLVSEDVKWPNGISVDDQWIYWTDAYLECIERITFSGQQRSVILDNLPHPYAIAVFKNEIYWDDWSQLSIFRASKYSGSQMEILANQLTGLMDMKIFYKGKNTGSNACVPRPCSLLCLPKANNSRSCRCPEDVSSSVLPSGDLMCDCPQGYQLKNNTCVKQEN
With B1, the binding result is recorded as “binds”.

B2: SORLA YWTD repeat/EGF-like region (aa 758-1,076) fused to Fc, T947M variant (Fc fusion, UniProt Q92673 758-1076, looked up)
chain: B1 chain with T190M
B2: the binding result is listed as “binds”.

These data come from publication PMC5716044 (The Journal of Experimental Medicine, 2017).
